# B1: Mothers against decapentaplegic homolog 4 (Homo sapiens), Q13485 (parent)
# chain: MDNMSITNTPTSNDACLSIVHSLMCHRQGGESETFAKRAIESLVKKLKEKKDELDSLITAITTNGAHPSKCVTIQRTLDGRLQVAGRKGFPHVIYARLWRWPDLHKNELKHVKYCQYAFDLKCDSVCVNPYHYERVVSPGIDLSGLTLQSNAPSSMMVKDEYVHDFEGQPSLSTEGHSIQTIQHPPSNRASTETYSTPALLAPSESNATSTANFPNIPVASTSQPASILGGSHSEGLLQIASGPQPGQQQNGFTGQPATYHHNSTTTWTGSRTAPYTPNLPHHQNGHLQHHPPMPPHPGHYWPVHNELAFQPPISNHPAPEYWCSIAYFEMDVQVGETFKVPSSCPIVTVDGYVDPSGGDRFCLGQLSNVHRTEAIERARLHIGKGVQLECKGEGDVWVRCLSDHAVFVQSYYLDREAGRAPGDAVHKIYPSAYIKVFDLRQCHRQMQQQAATAQAAAAAQAAAVAGNIPGPGSVGGIAPAISLSAAAGIGVDDLRRLCILRMSFVKGWGPDYPRQSIKETPCWIEIHLHRALQLLDEVLHTMPIADPQPLD
# Variants of: B1
# Conditions: with smad3_human SMAD3, P84022
row,Variant,effect of a mutation on the interaction
1,G386D,disrupting interaction strength

# Variants of: B1
# Conditions: with smad1_human SMAD1, Q15797
# smad1_human SMAD1, Q15797, sequence (Q15797 whole entry): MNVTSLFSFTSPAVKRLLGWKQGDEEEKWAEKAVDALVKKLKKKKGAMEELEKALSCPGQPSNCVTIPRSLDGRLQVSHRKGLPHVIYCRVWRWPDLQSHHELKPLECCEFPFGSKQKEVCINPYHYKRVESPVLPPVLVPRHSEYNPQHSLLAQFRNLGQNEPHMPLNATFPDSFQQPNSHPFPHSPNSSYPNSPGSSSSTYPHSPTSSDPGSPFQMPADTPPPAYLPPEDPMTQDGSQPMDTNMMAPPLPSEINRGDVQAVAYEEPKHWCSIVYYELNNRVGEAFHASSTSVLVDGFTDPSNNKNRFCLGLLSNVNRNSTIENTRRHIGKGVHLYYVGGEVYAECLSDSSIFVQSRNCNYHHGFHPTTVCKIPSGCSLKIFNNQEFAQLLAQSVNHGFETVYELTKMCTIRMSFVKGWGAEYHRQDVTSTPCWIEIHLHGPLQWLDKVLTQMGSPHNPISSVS
row,Variant,effect of a mutation on the interaction
1,G386D,disrupting interaction strength

# Variants of: B1
# Conditions: with axin2_human AXIN2, Q9Y2T1
# axin2_human AXIN2, Q9Y2T1, sequence (Q9Y2T1 whole entry): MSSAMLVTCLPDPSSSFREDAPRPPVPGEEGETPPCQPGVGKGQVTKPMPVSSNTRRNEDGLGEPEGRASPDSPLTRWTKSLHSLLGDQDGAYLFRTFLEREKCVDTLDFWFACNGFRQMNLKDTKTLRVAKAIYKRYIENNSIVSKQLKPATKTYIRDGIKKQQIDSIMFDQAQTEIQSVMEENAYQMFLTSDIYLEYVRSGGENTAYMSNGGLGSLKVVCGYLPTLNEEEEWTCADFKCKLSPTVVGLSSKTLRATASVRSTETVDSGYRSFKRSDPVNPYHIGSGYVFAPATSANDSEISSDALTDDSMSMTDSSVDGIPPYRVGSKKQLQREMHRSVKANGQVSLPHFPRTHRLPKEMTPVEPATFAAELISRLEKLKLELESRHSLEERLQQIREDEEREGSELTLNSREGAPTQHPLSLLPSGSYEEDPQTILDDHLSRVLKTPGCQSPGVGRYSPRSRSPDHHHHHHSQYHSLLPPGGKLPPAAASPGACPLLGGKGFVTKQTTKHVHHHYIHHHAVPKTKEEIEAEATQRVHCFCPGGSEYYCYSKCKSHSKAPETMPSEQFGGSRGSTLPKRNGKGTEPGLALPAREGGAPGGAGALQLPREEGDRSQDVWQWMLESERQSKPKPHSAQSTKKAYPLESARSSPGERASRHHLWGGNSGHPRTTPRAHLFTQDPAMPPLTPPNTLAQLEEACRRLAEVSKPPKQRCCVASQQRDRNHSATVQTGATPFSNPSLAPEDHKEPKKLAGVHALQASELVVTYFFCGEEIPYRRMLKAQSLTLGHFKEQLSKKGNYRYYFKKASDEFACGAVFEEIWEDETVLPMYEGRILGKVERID
row,Variant,effect of a mutation on the interaction
1,G386D,causing an interaction

# Variants of: B1
# Conditions: with gsk3b_human GSK3B
row,Variant,effect of a mutation on the interaction
1,G386D,causing an interaction

# Variants of: B1
# Conditions: with agap2_human AGAP2, Q99490
row,Variant,effect of a mutation on the interaction
1,G386D,with no effect

# Variants of: B1
# Conditions: with ajuba_human AJUBA
row,Variant,effect of a mutation on the interaction
1,G386D,with no effect

# Variants of: B1
# Conditions: with akt1_human AKT1, P31749
row,Variant,effect of a mutation on the interaction
1,G386D,with no effect

# Variants of: B1
# Conditions: with akts1_human AKT1S1, Q96B36
row,Variant,effect of a mutation on the interaction
1,G386D,with no effect

# Variants of: B1
# Conditions: with alk_human ALK
row,Variant,effect of a mutation on the interaction
1,G386D,with no effect

# Variants of: B1
# Conditions: with aph1a_human APH1A
row,Variant,effect of a mutation on the interaction
1,G386D,with no effect

# Variants of: B1
# Conditions: with arnt_human ARNT
row,Variant,effect of a mutation on the interaction
1,G386D,with no effect

# Variants of: B1
# Conditions: with bakor_human ATG14, Q6ZNE5
row,Variant,effect of a mutation on the interaction
1,G386D,with no effect

# Variants of: B1
# Conditions: with atpb_human ATP5F1B
row,Variant,effect of a mutation on the interaction
1,G386D,with no effect

# Variants of: B1
# Conditions: with aurkb_human AURKB
row,Variant,effect of a mutation on the interaction
1,G386D,with no effect

# Variants of: B1
# Conditions: with axin2_human AXIN2, Q9Y2T1
# Remark: another data set of the same source
row,Variant,effect of a mutation on the interaction
1,G386D,with no effect

# Variants of: B1
# Conditions: with ufo_human AXL
row,Variant,effect of a mutation on the interaction
1,G386D,with no effect

# Variants of: B1
# Conditions: with za2g_human AZGP1, P25311
row,Variant,effect of a mutation on the interaction
1,G386D,with no effect

# Variants of: B1
# Conditions: with b2mg_human B2M
row,Variant,effect of a mutation on the interaction
1,G386D,with no effect

# Variants of: B1
# Conditions: with bap1_human BAP1, Q92560
row,Variant,effect of a mutation on the interaction
1,G386D,with no effect

# Variants of: B1
# Conditions: with becn1_human BECN1, Q14457
row,Variant,effect of a mutation on the interaction
1,G386D,with no effect

# Variants of: B1
# Conditions: with birc2_human BIRC2, Q13490
# birc2_human BIRC2, Q13490, sequence (Q13490 whole entry): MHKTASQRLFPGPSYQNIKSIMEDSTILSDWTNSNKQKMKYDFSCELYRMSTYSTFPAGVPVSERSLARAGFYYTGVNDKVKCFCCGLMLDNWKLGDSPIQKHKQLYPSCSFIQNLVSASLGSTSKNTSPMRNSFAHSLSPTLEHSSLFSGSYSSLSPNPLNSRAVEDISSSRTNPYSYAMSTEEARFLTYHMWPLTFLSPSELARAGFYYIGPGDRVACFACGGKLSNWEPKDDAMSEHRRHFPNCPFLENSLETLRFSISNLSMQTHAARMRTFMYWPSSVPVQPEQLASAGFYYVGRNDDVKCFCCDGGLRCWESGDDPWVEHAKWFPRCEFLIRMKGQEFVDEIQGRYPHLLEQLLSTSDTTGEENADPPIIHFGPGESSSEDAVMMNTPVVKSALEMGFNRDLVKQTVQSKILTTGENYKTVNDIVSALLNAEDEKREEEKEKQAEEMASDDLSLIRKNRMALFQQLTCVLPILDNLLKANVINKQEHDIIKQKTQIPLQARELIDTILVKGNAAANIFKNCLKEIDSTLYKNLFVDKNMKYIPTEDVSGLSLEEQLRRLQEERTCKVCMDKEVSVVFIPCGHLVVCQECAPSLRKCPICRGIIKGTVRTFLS
row,Variant,effect of a mutation on the interaction
1,G386D,with no effect

# Variants of: B1
# Conditions: with braf_human BRAF
row,Variant,effect of a mutation on the interaction
1,G386D,with no effect

# Variants of: B1
# Conditions: with baba2_human BABAM2, Q9NXR7
row,Variant,effect of a mutation on the interaction
1,G386D,with no effect

# Variants of: B1
# Conditions: with btg1_human BTG1, P62324
row,Variant,effect of a mutation on the interaction
1,G386D,with no effect

# Variants of: B1
# Conditions: with btk_human BTK
row,Variant,effect of a mutation on the interaction
1,G386D,with no effect

# Variants of: B1
# Conditions: with cbl_human CBL
row,Variant,effect of a mutation on the interaction
1,G386D,with no effect

# Variants of: B1
# Conditions: with cblb_human CBLB
row,Variant,effect of a mutation on the interaction
1,G386D,with no effect

# Variants of: B1
# Conditions: with ccnd1_human CCND1, P24385
row,Variant,effect of a mutation on the interaction
1,G386D,with no effect

# Variants of: B1
# Conditions: with ccnd2_human CCND2, P30279
row,Variant,effect of a mutation on the interaction
1,G386D,with no effect

# Variants of: B1
# Conditions: with ccnd3_human CCND3, P30281
row,Variant,effect of a mutation on the interaction
1,G386D,with no effect

# Variants of: B1
# Conditions: with cd44_human CD44, P16070
# cd44_human CD44, P16070, sequence (P16070 whole entry): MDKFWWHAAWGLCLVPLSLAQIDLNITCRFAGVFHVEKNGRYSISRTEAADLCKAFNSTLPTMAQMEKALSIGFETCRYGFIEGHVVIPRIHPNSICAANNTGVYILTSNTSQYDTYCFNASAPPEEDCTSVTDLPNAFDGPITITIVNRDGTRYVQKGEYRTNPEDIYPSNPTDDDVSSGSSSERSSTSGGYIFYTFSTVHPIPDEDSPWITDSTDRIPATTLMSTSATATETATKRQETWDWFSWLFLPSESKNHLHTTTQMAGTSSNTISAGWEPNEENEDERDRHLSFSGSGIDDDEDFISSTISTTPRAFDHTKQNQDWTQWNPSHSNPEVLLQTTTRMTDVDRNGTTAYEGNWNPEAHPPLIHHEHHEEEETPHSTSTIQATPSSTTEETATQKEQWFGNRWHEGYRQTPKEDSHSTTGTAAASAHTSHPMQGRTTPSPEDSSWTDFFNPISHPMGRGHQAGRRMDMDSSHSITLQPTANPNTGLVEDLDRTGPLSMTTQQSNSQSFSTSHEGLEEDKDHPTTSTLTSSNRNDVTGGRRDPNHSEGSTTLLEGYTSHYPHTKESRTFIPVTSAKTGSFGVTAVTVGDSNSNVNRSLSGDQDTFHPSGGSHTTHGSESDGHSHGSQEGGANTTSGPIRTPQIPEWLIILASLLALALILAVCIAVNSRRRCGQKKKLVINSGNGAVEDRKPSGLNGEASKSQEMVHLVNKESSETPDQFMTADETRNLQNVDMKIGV
row,Variant,effect of a mutation on the interaction
1,G386D,with no effect

# Variants of: B1
# Conditions: with cd79b_human CD79B
row,Variant,effect of a mutation on the interaction
1,G386D,with no effect

# Variants of: B1
# Conditions: with cdc27_human CDC27, P30260
row,Variant,effect of a mutation on the interaction
1,G386D,with no effect

# Variants of: B1
# Conditions: with cdk4_human CDK4, P11802
row,Variant,effect of a mutation on the interaction
1,G386D,with no effect

# Variants of: B1
# Conditions: with cdk6_human CDK6, Q00534
row,Variant,effect of a mutation on the interaction
1,G386D,with no effect

# Variants of: B1
# Conditions: with cdn2b_human CDKN2B
row,Variant,effect of a mutation on the interaction
1,G386D,with no effect

# Variants of: B1
# Conditions: with cdn2c_human CDKN2C
row,Variant,effect of a mutation on the interaction
1,G386D,with no effect

# Variants of: B1
# Conditions: with cebpa_human CEBPA
row,Variant,effect of a mutation on the interaction
1,G386D,with no effect

# Variants of: B1
# Conditions: with chd1l_human CHD1L
row,Variant,effect of a mutation on the interaction
1,G386D,with no effect

# Variants of: B1
# Conditions: with chd2_human CHD2, O14647
row,Variant,effect of a mutation on the interaction
1,G386D,with no effect

# Variants of: B1
# Conditions: with ch3l1_human CHI3L1, P36222
row,Variant,effect of a mutation on the interaction
1,G386D,with no effect

# Variants of: B1
# Conditions: with csf1r_human CSF1R
row,Variant,effect of a mutation on the interaction
1,G386D,with no effect

# Variants of: B1
# Conditions: with ctna1_human CTNNA1, P35221
# ctna1_human CTNNA1, P35221, sequence (P35221 whole entry): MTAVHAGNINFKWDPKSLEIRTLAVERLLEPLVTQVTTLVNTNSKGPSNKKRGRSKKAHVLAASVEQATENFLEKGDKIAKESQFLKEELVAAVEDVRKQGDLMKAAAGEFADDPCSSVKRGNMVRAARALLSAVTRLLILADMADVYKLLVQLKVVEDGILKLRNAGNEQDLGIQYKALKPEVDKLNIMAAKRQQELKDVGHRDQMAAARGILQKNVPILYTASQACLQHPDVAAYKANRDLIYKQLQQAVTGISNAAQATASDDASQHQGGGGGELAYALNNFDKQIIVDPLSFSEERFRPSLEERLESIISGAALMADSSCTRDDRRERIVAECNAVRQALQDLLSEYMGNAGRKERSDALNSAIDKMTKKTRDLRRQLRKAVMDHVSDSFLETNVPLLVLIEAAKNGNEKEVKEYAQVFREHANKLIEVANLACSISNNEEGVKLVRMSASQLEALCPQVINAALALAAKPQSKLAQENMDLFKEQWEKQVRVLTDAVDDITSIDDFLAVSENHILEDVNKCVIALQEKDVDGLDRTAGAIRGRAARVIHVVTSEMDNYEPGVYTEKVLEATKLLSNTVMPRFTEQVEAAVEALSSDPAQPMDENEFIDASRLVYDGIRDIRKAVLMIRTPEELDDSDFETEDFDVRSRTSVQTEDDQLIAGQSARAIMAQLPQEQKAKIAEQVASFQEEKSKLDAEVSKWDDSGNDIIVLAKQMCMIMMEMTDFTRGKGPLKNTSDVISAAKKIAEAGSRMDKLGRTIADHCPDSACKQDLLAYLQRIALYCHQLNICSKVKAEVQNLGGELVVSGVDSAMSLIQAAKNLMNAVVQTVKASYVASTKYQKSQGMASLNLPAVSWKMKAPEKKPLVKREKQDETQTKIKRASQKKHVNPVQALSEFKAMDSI
row,Variant,effect of a mutation on the interaction
1,G386D,with no effect

# Variants of: B1
# Conditions: with ctnb1_human CTNNB1, P35222
# ctnb1_human CTNNB1, P35222, sequence (P35222 whole entry): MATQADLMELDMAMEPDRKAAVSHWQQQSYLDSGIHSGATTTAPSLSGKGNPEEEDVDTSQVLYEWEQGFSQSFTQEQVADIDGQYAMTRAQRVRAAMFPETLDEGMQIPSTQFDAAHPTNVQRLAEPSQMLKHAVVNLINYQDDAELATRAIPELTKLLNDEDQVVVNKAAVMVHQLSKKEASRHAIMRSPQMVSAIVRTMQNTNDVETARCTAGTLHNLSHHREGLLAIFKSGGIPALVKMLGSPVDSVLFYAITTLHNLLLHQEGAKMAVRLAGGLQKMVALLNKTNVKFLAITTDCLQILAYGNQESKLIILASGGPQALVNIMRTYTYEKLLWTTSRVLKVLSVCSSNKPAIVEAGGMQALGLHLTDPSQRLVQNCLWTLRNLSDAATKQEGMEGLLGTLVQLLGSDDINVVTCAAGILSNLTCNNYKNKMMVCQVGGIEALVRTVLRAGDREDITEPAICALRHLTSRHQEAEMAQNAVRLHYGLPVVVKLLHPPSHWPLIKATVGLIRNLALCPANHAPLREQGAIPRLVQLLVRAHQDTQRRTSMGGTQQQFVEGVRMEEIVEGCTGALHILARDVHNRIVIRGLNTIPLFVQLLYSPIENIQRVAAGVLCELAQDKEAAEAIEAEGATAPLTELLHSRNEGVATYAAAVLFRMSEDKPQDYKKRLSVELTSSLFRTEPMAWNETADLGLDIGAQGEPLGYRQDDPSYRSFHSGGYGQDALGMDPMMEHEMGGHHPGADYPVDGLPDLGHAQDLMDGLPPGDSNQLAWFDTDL
row,Variant,effect of a mutation on the interaction
1,G386D,with no effect

# Variants of: B1
# Conditions: with cul3_human CUL3, Q13618
row,Variant,effect of a mutation on the interaction
1,G386D,with no effect

# Variants of: B1
# Conditions: with dicer_human DICER1, Q9UPY3
row,Variant,effect of a mutation on the interaction
1,G386D,with no effect

# Variants of: B1
# Conditions: with dll3_human DLL3, Q9NYJ7
# dll3_human DLL3, Q9NYJ7, sequence (Q9NYJ7 whole entry): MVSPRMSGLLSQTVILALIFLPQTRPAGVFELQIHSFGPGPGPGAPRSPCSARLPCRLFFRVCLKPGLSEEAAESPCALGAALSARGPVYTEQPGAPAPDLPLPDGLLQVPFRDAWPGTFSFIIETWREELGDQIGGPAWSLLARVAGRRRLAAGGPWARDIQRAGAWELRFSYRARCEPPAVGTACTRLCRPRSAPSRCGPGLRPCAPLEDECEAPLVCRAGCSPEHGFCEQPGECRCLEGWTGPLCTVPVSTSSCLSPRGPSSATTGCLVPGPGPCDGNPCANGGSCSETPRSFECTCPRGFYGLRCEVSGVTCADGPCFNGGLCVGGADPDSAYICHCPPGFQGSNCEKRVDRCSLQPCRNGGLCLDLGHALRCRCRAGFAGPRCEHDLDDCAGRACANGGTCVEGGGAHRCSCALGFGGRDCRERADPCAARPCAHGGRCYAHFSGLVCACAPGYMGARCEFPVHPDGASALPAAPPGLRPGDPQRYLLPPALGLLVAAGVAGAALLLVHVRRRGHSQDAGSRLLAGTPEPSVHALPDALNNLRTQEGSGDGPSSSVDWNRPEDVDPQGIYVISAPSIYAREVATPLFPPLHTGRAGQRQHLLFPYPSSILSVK
row,Variant,effect of a mutation on the interaction
1,G386D,with no effect

# Variants of: B1
# Conditions: with duox2_human DUOX2, Q9NRD8
row,Variant,effect of a mutation on the interaction
1,G386D,with no effect

# Variants of: B1
# Conditions: with e2f1_human E2F1, Q01094
row,Variant,effect of a mutation on the interaction
1,G386D,with no effect

# Variants of: B1
# Conditions: with e2f2_human E2F2, Q14209
row,Variant,effect of a mutation on the interaction
1,G386D,with no effect

# Variants of: B1
# Conditions: with e2f4_human E2F4, Q16254
row,Variant,effect of a mutation on the interaction
1,G386D,with no effect

# Variants of: B1
# Conditions: with e2f5_human E2F5, Q15329
row,Variant,effect of a mutation on the interaction
1,G386D,with no effect

# Variants of: B1
# Conditions: with e2f8_human E2F8, A0AVK6
row,Variant,effect of a mutation on the interaction
1,G386D,with no effect

# Variants of: B1
# Conditions: with if4e_human EIF4E
row,Variant,effect of a mutation on the interaction
1,G386D,with no effect

# Variants of: B1
# Conditions: with epha2_human EPHA2, P29317
row,Variant,effect of a mutation on the interaction
1,G386D,with no effect

# Variants of: B1
# Conditions: with epha7_human EPHA7, Q15375
row,Variant,effect of a mutation on the interaction
1,G386D,with no effect

# Variants of: B1
# Conditions: with ephb1_human EPHB1, P54762
row,Variant,effect of a mutation on the interaction
1,G386D,with no effect

# Variants of: B1
# Conditions: with erbb3_human ERBB3, P21860
row,Variant,effect of a mutation on the interaction
1,G386D,with no effect

# Variants of: B1
# Conditions: with erbb4_human ERBB4, Q15303
row,Variant,effect of a mutation on the interaction
1,G386D,with no effect

# Variants of: B1
# Conditions: with esr1_human ESR1, P03372
row,Variant,effect of a mutation on the interaction
1,G386D,with no effect

# Source: IntAct's records for PubMed 35512704
